PMC3017759

Experiments:
IL4Rα (Homo sapiens) = IL4Rα (Homo sapiens) (UniProt P24394); details: cited from earlier work
γc (Homo sapiens) = γc (Homo sapiens) (UniProt P31785); details: cited from earlier work
IL13Rα1 (Homo sapiens) = IL13Rα1 (Homo sapiens) (UniProt P78552); details: cited from earlier work
[1] = molecular target: M. musculus (C57BL/6) IL4Rα extracellular domain (M. musculus (C57BL/6)) (UniProt P16382); test: SPR; BIAcore 2000; about 1400 RU of IL4Rα immobilised on a CM5 chip by amine linkage; graded doses of IL4 in the mobile phase; HBS-EP (10 mM HEPES pH 7.4, 150 mM NaCl, 3 mM EDTA, 0.005% P-20); 25°C; flow 3 μl/min; 1:1 Langmuir fit; average of two independent experiments on two chips
Chain of UniProt P16382 (P16382 26-233): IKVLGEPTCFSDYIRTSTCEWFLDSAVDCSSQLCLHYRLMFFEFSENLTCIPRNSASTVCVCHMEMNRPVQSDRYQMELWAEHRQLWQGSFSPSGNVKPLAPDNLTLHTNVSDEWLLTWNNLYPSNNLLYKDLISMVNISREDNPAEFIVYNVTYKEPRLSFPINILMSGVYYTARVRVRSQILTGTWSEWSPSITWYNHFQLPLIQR

Chain of UniProt P24394 (P24394 26-232): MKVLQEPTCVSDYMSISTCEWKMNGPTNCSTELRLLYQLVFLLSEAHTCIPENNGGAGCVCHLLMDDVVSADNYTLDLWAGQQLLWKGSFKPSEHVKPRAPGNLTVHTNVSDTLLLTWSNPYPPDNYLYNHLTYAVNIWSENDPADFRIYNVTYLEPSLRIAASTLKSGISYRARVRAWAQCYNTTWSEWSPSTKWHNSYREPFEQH
Chain of UniProt P31785 (P31785 23-262): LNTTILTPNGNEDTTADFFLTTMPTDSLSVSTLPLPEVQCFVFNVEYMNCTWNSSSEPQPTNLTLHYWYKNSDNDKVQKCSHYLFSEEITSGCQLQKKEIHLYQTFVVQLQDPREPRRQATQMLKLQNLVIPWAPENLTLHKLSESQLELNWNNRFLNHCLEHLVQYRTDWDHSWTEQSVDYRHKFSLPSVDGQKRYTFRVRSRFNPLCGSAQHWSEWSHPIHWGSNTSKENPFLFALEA
Chain of IL4 (P05112 25-153): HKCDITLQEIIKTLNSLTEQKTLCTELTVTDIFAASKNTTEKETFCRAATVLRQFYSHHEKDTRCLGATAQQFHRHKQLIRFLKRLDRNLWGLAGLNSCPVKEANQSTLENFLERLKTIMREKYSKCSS
Chain of UniProt P78552 (P78552 22-343): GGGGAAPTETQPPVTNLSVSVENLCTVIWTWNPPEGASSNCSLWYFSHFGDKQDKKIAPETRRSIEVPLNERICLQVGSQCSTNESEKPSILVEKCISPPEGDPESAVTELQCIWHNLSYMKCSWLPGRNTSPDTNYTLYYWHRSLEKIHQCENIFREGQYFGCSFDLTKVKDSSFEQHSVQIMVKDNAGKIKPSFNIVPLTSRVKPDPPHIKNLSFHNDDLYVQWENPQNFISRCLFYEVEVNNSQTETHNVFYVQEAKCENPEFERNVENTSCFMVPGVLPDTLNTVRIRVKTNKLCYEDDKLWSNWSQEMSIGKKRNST

In the case of IL4 (from UniProt P05112), the Kd (IL4Rα (Homo sapiens)) is listed as 1 nM.
In the case of IL4/IL4Rα complex (from UniProt P05112), the Kd (γc (Homo sapiens)) is listed as 500 nM and the Kd (IL13Rα1 (Homo sapiens)) is listed as 500 nM.
In the case of “recombinant CAST/Ei IL4 (interleukin-4, Mus musculus castaneus allotype) (from UniProt P07750 21-140) (ligand)”, the Ka [1] is reported as 4.44e+09 M⁻¹, the Kd [1] is reported as 0.226 nM and the koff [1] is reported as 0.000713 s⁻¹. The kon [1] was 3.16e+06 M⁻¹ s⁻¹.
